Tests used:
[1] = molecular target: T1, Recombinant human macrophage mannose receptor (MMR) (human, UniProt P22897 19-1383, limits assumed); assay: SPR (Biacore 2000), receptor amine-coupled on CM5 chip, fusion protein as analyte, apparent Kd from steady state
T1 construct: Bought; Amine-coupled to a CM5 chip at 13745 RU; also called CD206
T1 sequence (looked up): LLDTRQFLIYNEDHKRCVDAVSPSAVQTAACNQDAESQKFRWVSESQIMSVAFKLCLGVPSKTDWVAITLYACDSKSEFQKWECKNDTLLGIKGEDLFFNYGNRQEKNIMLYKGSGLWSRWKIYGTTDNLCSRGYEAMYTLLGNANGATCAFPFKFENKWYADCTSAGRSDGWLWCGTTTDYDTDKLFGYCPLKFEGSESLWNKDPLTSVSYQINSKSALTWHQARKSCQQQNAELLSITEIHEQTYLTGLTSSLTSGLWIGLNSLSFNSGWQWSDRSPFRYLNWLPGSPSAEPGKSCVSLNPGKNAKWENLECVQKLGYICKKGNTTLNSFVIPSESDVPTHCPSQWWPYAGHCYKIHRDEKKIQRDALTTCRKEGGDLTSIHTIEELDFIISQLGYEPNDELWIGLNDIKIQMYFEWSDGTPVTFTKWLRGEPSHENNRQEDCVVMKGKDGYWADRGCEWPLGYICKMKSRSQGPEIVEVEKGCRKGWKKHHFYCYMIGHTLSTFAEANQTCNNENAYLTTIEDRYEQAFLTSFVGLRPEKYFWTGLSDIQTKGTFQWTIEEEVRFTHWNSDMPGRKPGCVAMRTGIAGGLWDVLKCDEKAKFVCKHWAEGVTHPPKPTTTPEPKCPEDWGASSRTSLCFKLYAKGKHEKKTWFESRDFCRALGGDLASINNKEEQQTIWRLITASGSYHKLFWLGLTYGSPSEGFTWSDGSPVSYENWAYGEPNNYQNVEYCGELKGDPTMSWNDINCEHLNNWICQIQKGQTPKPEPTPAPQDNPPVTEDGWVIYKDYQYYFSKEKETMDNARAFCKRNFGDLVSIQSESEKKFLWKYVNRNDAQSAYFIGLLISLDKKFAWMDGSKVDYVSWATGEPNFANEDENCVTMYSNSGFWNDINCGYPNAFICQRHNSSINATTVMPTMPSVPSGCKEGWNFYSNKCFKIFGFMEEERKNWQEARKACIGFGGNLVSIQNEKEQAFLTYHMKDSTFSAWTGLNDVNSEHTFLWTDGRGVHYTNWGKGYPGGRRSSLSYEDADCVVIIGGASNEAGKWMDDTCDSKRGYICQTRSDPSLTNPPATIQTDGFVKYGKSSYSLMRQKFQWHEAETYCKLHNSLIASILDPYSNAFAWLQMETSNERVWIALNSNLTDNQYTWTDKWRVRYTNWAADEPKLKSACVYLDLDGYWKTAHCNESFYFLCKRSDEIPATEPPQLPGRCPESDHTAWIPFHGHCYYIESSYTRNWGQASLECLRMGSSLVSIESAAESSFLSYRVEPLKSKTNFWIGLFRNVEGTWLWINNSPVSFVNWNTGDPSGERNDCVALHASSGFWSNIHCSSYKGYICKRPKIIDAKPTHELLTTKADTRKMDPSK
Description: (§1) Immunoglobulin fusion proteins of PSGL-1 and AGP produced in wild type Pichia and purified, as described in Example 1, were used in experiments to assess their ability to bind to recombinant human macrophage mannose receptor (MMR), DC-SIGN/Fc chimera and mannan binding lectin (MBL) Using Biacore (real time surface plasmon resonance spectroscopy) analysis as follows.
(§2) Analyses were performed using a Biacore 2000 instrument (Biacore, GE Healthcare, Uppsala, Sweden). Recombinant human macrophage mannose receptor (MMR), DC-SIGN/Fc chimera and mannan binding lectin (MBL) were purchased from R & D Systems and immobilized on a CM5 sensor chip using amine coupling chemistry according to the manufacturer's instructions. Briefly, activation of the surface was made with EDC/NHS 1:1, 10 μL/min for 7 minutes and the receptors were dissolved in sodium acetate buffer pH 4.5 at concentrations of 15 μg/ml for MMR, 10 μg/ml for DC-SIGN and 90 μg/ml for MBL and immobilized at 10 μl/min for 7 minutes. Deactivation of excess of reactive groups was made with ethanolamine, 20 μl/min for 7 minutes. […] Data were calculated using BIAevaluation 4.1 software (Biacore, GE Healthcare) and the apparent equilibrium dissociation constants (Kd) were calculated by plotting steady state binding levels against the analyte concentrations for several concentrations simultaneously. […]

[2] = molecular target: T2, DC-SIGN/Fc chimera (human, UniProt Q9NNX6 62-404); assay: as above
T2 construct: Amine-coupled to a CM5 chip at 8312 RU; also called CD209; dendritic cell-specific ICAM-3-grabbing nonintegrin; Fc part of the bought chimera not given
T2 sequence (looked up): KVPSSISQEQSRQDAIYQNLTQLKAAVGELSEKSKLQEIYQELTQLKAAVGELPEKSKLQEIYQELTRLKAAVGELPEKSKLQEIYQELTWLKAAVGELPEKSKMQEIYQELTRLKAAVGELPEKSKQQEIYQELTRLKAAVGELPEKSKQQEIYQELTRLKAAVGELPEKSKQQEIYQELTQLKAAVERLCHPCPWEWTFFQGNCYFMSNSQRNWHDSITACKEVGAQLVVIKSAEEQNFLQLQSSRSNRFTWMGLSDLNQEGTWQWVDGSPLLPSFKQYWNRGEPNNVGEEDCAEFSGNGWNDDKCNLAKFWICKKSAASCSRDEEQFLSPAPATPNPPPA
Description: as §1, §2

B1: PSGL-1/mIgG2b fusion protein produced in Pichia pastoris (Fc fusion, UniProt Q14242 18-320, looked up)
chain: LQLWDTWADEAEKALGPLLARDRRQATEYEYLDYDFLPETEPPEMLRNSTDTTPLTGPGTPESTTVEPAARRSTGLDAGGAVTELTTELANMGNLSTDSAAMEIQTTQPAATEAQTTQPVPTEAQTTPLAATEAQTTRLTATEAQTTPLAATEAQTTPPAATEAQTTQPTGLEAQTTAPAAMEAQTTAPAAMEAQTTPPAAMEAQTTQTTAMEAQTTAPEATEAQTTQPTATEAQTTPLAAMEALSTEPSATEALSMEPTTKRGLFIPFSVSSVTHKGIPMAASNLSVNYPVGAPDHISVKQC
modifications: O-linked mannose glycans (Hex2-9) and N-linked glycans from expression in P. pastoris; sites not given
notes: extracellular domain; Homodimeric chimeric glycoprotein, about 250-300 kDa, secreted from P. pastoris GS115 by the pPICZalpha vector and purified on MabSelect SuRe; also called PSGL-1/mlgG2b; Pp/PSGL1-mIgG2b; not shown: Fc part of mouse IgG2b
Kd [1]: 76.7 nM | Kd [2]: 8.82 nM
